# According to patent US20190263876A1 (published 2019):
# Read-outs that look alike come from different tables or passages of the source.
# T1: Activin A (UniProt P08476)
# T1 sequence (looked up): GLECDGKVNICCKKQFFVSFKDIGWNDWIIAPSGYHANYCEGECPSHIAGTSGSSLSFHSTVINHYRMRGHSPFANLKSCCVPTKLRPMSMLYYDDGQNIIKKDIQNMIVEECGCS
# T2: GDF11 (UniProt O95390 299-407)
# T2 construct: also called Growth and Differentiation Factor-11; BMP11
# T2 sequence (looked up): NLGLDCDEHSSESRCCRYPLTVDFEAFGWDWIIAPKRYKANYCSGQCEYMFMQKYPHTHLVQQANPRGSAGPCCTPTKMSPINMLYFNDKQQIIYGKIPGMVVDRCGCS
# How the values were obtained:
# [1] = target: T1, Activin A; assay: cell-based or functional assay
# [2] = target: T2, GDF11; assay: cell-based or functional assay
# [3] = target: T1, Activin A; assay: cell-based or functional assay; remark: listed apart in the source
# [4] = target: T2, GDF11; assay: cell-based or functional assay; remark: listed apart in the source
# [5] = target: T2, GDF11; assay: BiaCore; ligand coupled to the device, receptor flowed
Binder,"IC50 (ng/mL), Activin, reporter assay, conditioned media [1] [ng/mL]","IC50 (ng/mL), GDF-11, reporter assay, conditioned media [2] [ng/mL]","IC50 (ng/mL), Activin, reporter assay, conditioned media [3] [ng/mL]","IC50 (ng/mL), GDF-11, reporter assay, conditioned media [4] [ng/mL]",further results
"ActRIIB(20-128)-hFc (Fc fusion, not shown: a dimerising Fc or GST) GRGEAETRECIYYNANWELERTNQSGLERCEGEQDKRLHCYASWRNSSGTIELVKKGCWLDDFNCYDRQECVATEENPQVYFCCCEGNFCNERFTHLPEAGGPEVTYEP",158,130,–,–,–
"ActRIIB-Fc A64 20-134 (Fc fusion, not shown: a dimerising Fc or GST) GRGEAETRECIYYNANWELERTNQSGLERCEGEQDKRLHCYASWANSSGTIELVKKGCWLDDFNCYDRQECVATEENPQVYFCCCEGNFCNERFTHLPEAGGPEVTYEPPPTAPT",–,–,–,–,"Activin Inhibition Activity, cell-based assay (KI) [1]: 1000 nM; GDF11 Inhibition Activity, cell-based assay (KI) [2]: 1000 nM"
"ActRIIB(21-131)-hFc (Fc fusion, not shown: a dimerising Fc or GST) RGEAETRECIYYNANWELERTNQSGLERCEGEQDKRLHCYASWRNSSGTIELVKKGCWLDDFNCYDRQECVATEENPQVYFCCCEGNFCNERFTHLPEAGGPEVTYEPPPT",–,–,325,121,–
"Soluble ActRIIB-Fc +15tail (Fc fusion, not shown: a dimerising Fc or GST) SGRGEAETRECIYYNANWELERTNQSGLERCEGEQDKRLHCYASWANSSGTIELVKKGCWLDDFNCYDRQECVATEENPQVYFCCCEGNFCNERFTHLPEAGGPEVTYEPPPTAPT",–,–,–,–,Kd [5]: 19 nM
"ActRIIB(20-132)-hFc (Fc fusion, not shown: a dimerising Fc or GST) GRGEAETRECIYYNANWELERTNQSGLERCEGEQDKRLHCYASWRNSSGTIELVKKGCWLDDFNCYDRQECVATEENPQVYFCCCEGNFCNERFTHLPEAGGPEVTYEPPPTA",32,87,–,–,–
"ActRIIB(20-131)-hFc (Fc fusion, not shown: a dimerising Fc or GST) GRGEAETRECIYYNANWELERTNQSGLERCEGEQDKRLHCYASWRNSSGTIELVKKGCWLDDFNCYDRQECVATEENPQVYFCCCEGNFCNERFTHLPEAGGPEVTYEPPPT",44,120,201,183,–

# More lines, main results first:
"IC50 (ng/mL), Activin, reporter assay, conditioned media [1] [ng/mL]","IC50 (ng/mL), GDF-11, reporter assay, conditioned media [2] [ng/mL]","IC50 (ng/mL), Activin, reporter assay, conditioned media [3] [ng/mL]","IC50 (ng/mL), GDF-11, reporter assay, conditioned media [4] [ng/mL]",Binder,further results
–,–,105,69,"ActRIIB(24-131)-hFc (Fc fusion, not shown: a dimerising Fc or GST) AETRECIYYNANWELERTNQSGLERCEGEQDKRLHCYASWRNSSGTIELVKKGCWLDDFNCYDRQECVATEENPQVYFCCCEGNFCNERFTHLPEAGGPEVTYEPPPT",–
–,–,100,71,"ActRIIB(22-131)-hFc (Fc fusion, not shown: a dimerising Fc or GST) GEAETRECIYYNANWELERTNQSGLERCEGEQDKRLHCYASWRNSSGTIELVKKGCWLDDFNCYDRQECVATEENPQVYFCCCEGNFCNERFTHLPEAGGPEVTYEPPPT",–
–,–,43,60,"ActRIIB(23-131)-hFc (Fc fusion, not shown: a dimerising Fc or GST) EAETRECIYYNANWELERTNQSGLERCEGEQDKRLHCYASWRNSSGTIELVKKGCWLDDFNCYDRQECVATEENPQVYFCCCEGNFCNERFTHLPEAGGPEVTYEPPPT",–
